Assay results taken from US5512455A, “Atrial natriuretic peptide receptor protein” (Scios Nova, Inc., priority 1987, dated 1996).
Ends that are not written are not given here.

How the values were obtained:
[1] = biological target: T1, purified bovine vascular ANP receptor protein (Bos taurus, UniProt P10730); test: Competitive binding of 125I-ANP(4-28) against ANP peptides to purified ANP receptor protein; settings: for relative Ki value: purified bovine receptor, competition with 125I-ANP(4-28)
T1 construct: mature receptor protein is a 496 amino acid polypeptide, expressed as a propeptide; endogenous in cells; host or cells: bovine aortic smooth muscle (BASM) cells, cultured
T1 sequence (P10730 42-537): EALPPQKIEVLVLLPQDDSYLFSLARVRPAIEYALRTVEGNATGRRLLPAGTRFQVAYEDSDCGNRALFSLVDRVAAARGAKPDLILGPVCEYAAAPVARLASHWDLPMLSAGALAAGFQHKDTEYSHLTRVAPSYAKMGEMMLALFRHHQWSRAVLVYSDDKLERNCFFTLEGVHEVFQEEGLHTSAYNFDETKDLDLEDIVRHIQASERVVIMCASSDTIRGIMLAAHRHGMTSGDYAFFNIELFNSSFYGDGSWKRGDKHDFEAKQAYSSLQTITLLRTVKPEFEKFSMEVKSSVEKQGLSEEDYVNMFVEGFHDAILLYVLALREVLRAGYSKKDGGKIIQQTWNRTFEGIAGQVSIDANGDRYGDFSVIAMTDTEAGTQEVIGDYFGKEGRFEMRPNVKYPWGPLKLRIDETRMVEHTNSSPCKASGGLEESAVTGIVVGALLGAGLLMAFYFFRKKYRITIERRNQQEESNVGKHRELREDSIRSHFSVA
Protocol: To characterize the purified native bovine vascular ANP receptor protein further, its activity as a receptor in vitro was studied. The following ANP peptides, described in Schenk et al. (II), supra, were employed; ANP(4-28), ANP(7-28), and ANP(5-25). Bmax, Ki and Kd were calculated by standard methods. See, e.g., Scatchard (1949) Ann. N.Y. Acad. Sci., pp. 600-672. […] This corresponds to a stoichiometry of ANP to receptor protein of 1:3/subunit, or 0.7:1/holoreceptor.
An affinity matrix was made by coupling 40 mg human ANP(4-28) to 4 ml of Affi-gel 10 (Bio-Rad) as described by the manufacturer. Solubilized ANP receptor was adjusted to 10 mM CaCl2 and MgCl2 and filtered through […] (type GE, Millipore). The filtrate was chromatographed on the ANP-agarose column at a flow rate of 0.5 ml/min at 21° C. The column was washed with binding buffer (100 mM Tris HCl, pH 7.50; 100 mM NaCl; 4 mg/ml C12 E8; 10 mM CaCl2; and 10 mM MgCl2) until the effluent reached A280 =0.000. Then 6.0 ml of elution buffer (10 mM Na acetate, pH 5.00:100 mM NaCl; 4 mg/ml C12 E8; 10 mM CaCl2; 10 mM MgCl2) was added and the eluent was placed on ice and immediately adjusted to 37% (v/v) acetone. The solution was centrifuged at 4,000×g for 10 min at 4° C. and thoroughly aspirated. The pellet was resuspended in 3.0 ml of binding buffer and analyzed for purity, receptor binding activity, and amino acid sequence.
The tested ANP peptide included hANP(4-28), hANP(7-28) and atriopeptin I. Gamma-melanocyte stimulating hormone ([…]) was employed as a negative control. […] This corresponds to a stoichiometry of ANP to receptor protein of 1:3 kd subunit, or 0.7:1.0/holoreceptor.
Additional studies were conducted with ANP peptides.

[2] = biological target: T2, ANP receptor (pANPRc-1/4) expressed in Xenopus oocytes (Bos taurus, UniProt P10730); test: ANP binding to recombinant ANP receptor (pANPRc-1/4) in solubilized membranes of mRNA-injected Xenopus oocytes; design: species or system bovine
T2 construct: contains a 2290 base pair DNA insert which includes the entire open reading frame; expressed in transfected cells; host or cells: Xenopus oocytes injected with synthetic RNA from pANPRc-1/4; solubilized crude membranes
T2 sequence (P10730 42-537): T1 sequence (P10730 42-537)
Protocol: The receptor coding sequence from pANPRc-1/4 was cloned into pGEM1 (ProMega, Madison, Wis.) and RNA prepared according to the supplier's instructions. Oocyte preparation and injection were performed essentially as described, Gurdon et al. (1983) Meth. Enzymol. 101:370-386. Typically, each oocyte was injected with 50 nl 50 ng synthetic RNA followed by incubation in modified Barth's saline at 21° C. for 48 hr. Crude membranes were prepared and solubilized in receptor binding buffer (2 mg/ml C12 E8, 100 mM NaCl, 10 mM MgCl2, 10 mM CaCl2 and 100 mM Tris:HCl; pH 7.5). Binding was measured after incubating 0.5 ml of membrane suspension containing 10 μg protein with 2×10^5 cpm of ^125 I! […] (1×10^3 cpm/fmol) and the indicated concentration of unlabeled ANP analog for 30 min at 21° C. Reactions were terminated and free peptide separated from bound by precipitation with acetone (40% v/v final). Counts bound in the absence of unlabeled ligand were 2048±374 cpm while nonspecific binding (counts bound in the presence of 20 nM rANP) were 592±89 cpm.
Only low level, nonspecific binding was detected in membranes of uninfected, or mock injected eggs. […] Both […] and the truncated analog […] for binding. The Ii apparent obtained from the experiment was 0.27 nM for both analogs.

Row | Substance | Bmax for receptor binding ([1]; computer analysis of binding data, b45 adds '75% receptor activity') [nmol/mg protein] | Kd ([1]; computer analysis of binding data, purified receptor) [pM] | relative Ki value [1] [pM] | effect on binding of radiolabeled ANP ([2]; even at 100 μM) | competition for binding ([2]; solubilized oocyte membranes)
1 | ANP(4-28): ANP peptide described in Schenk et al. (II) (RSSCFGGRMDRIGAQSGLGCNSFRY; ends and bridges not checked; cysteine pairing not given here; UniProt P01160 127-151, looked up, fragment) | 5.7 | 300 | 300 |  | 
2 | Bombesin: bombesin, an unrelated tetradecapeptide (Peninsula Labs) |  |  |  | no effect on binding | did not compete for binding
3 | ANP(7-28): ANP peptide described in Schenk et al. (II) (CFGGRMDRIGAQSGLGCNSFRY; ends and bridges not checked; cysteine pairing not given here; UniProt P01160 130-151, looked up, fragment) |  |  | 1100 |  | 
4 | ANP(5-25): ANP peptide described in Schenk et al. (II) (SSCFGGRMDRIGAQSGLGCNS; ends and bridges not checked; cysteine pairing not given here; UniProt P01160 128-148, looked up, fragment) |  |  | 1120 |  | 
